In assay [1] the target is discoidal lipid bilayer-membrane scaffold protein complex including GPCR1 transmembrane protein (human). Kind of assay: Octet assay; biotinylated complex with GPCR1 captured on streptavidin through the Bir-A tag of the membrane scaffold protein (FIG. 1B). (In general: Biolayer interferometry detects binding as a change in optical thickness at a sensor tip.)
Assay [2] addresses control discoidal lipid bilayer-membrane scaffold protein complex without GPCR1 (empty complex). Kind of assay: Octet assay; biotinylated empty complex captured on streptavidin through the Bir-A tag of the membrane scaffold protein (FIG. 1B).

Our source for the Octet response values is US20250313624A1.

For “streptavidin tethered to plates (from UniProt P22629 37-163)”, the Octet response worked out at 3 nm in assay [1] and 0.69 nm in assay [2].
